Data: article PMC5384396

Experiments:
[1] = target: hGITR on hGITR-transfected Jurkat cells (human) (UniProt Q9Y5U5)
[2] = target: hGITR on hGITR-transfected Jurkat cells (human) (UniProt Q9Y5U5); remark: listed apart in the source
[3] = target: histidine-tagged recombinant FcγRIIIa (158V) (human); assay: SPR

hGITR on hGITR-transfected Jurkat cells (human), sequence (Q9Y5U5 26-241): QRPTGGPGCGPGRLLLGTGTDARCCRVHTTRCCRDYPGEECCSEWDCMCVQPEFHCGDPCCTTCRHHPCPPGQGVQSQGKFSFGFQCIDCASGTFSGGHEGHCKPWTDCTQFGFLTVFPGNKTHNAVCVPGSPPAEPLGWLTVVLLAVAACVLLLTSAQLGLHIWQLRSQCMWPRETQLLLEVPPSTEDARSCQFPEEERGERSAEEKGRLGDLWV

Substance: hGITRL FP with the human matrilin 1 trimerization domain (from UniProt Q9UNG2 49-177) (Fc fusion)
- NFκB-luciferase reporter in hGITR-transfected Jurkat cells, agonism EC50 [1]: 920 pM

Substance: IgG4 Fc-containing GITRL FP (from UniProt Q9UNG2 49-177) (Fc fusion)
- Jurkat-based NFκB reporter gene assay, EC50, comparison of Fc isotypes (Fig. S5) [2]: 300 pM

Substance: IgG1 isotype control antibody
- Kd [3]: 175000 pM
